Experiments:
Experiment in all cases: IEDB peptide-MHC binding, purified MHC/competitive/radioactivity; filed as Kd, often an IC50 or EC50 that approximates it; ≥ and ≤ were set here for values at or beyond the usual limits of such assays
HLA-A*02:06 = target: HLA-A*02:06
HLA-A*02:03 = target: HLA-A*02:03
HLA-A*02:02 = target: HLA-A*02:02
[1] = source organism: Vaccinia virus WR
[2] = source organism: SARS coronavirus Tor2
[3] = source organism: Lymphocytic choriomeningitis virus (strain Armstrong)
[4] = source organism: Dengue virus 4 Philippines/H241/1956
[5] = source organism: Vaccinia virus Copenhagen
[6] = source organism: Mammarenavirus whitewaterense
[7] = source organism: Mammarenavirus tacaribeense

| Sequence | Kd (HLA-A*02:06; [1]) [nM] | Kd (HLA-A*02:03; [1]) [nM] | Kd (HLA-A*02:02; [1]) [nM] | other results |
| --- | --- | --- | --- | --- |
| AILHNIYRL | 43.8 | 814 | 106 |  |
| ALKNSQAEL | ≥ 32900 | 16.8 | 70.9 |  |
| ALTDVEKRIL | 934 | 127 | 96.9 |  |
| ALWDSNFFT | ≥ 23100 | ≥ 28200 | 1060 |  |
| ATCALVSDCA | 9140 | ≥ 23400 | ≥ 34700 |  |
| CVSNLDISSV | 47.9 | 2.3 | 51.8 |  |
| DIIDLLLPST | 284 | 6590 | 14500 |  |
| DIKYISRDEL | 2060 | 9570 | 2550 |  |
| DITNILGGVL | 18900 | 3680 | 12300 |  |
| DVQRTRCKYV | 9510 | 6470 | 1070 |  |
| EIDVSEVKT | ≥ 77100 | ≥ 78100 | ≥ 46000 |  |
| ELEKCTSEI | ≥ 57900 | ≥ 56000 | ≥ 21100 |  |
| ELVMDKNHAI | ≥ 69800 | ≥ 70400 | 14200 |  |
| EMQLKIDKLT | ≥ 69800 | 6820 | 9660 |  |
| EMVEYLENQL | 420 | 209 | 212 |  |
| ETIQKDINI | ≥ 34900 | ≥ 50800 | ≥ 36600 |  |
| FLCLFLLPSL |  |  |  | Kd (HLA-A*02:06; [2]): 0.373 nM; Kd (HLA-A*02:03; [2]): 2.86 nM; Kd (HLA-A*02:02; [2]): 0.531 nM |
| FLNRFTTTL |  |  |  | Kd (HLA-A*02:06; [2]): 58.1 nM; Kd (HLA-A*02:03; [2]): 1.02 nM; Kd (HLA-A*02:02; [2]): 0.659 nM |
| FLYIIKLVFL |  |  |  | Kd (HLA-A*02:06; [2]): 865 nM; Kd (HLA-A*02:03; [2]): 22.4 nM; Kd (HLA-A*02:02; [2]): 7.28 nM |
| FMECNLNELV |  |  |  | Kd (HLA-A*02:03; source organism: Homo sapiens): 70.2 nM |
| FSLGAAVKA |  |  |  | Kd (HLA-A*02:06; [3]): 327 nM; Kd (HLA-A*02:03; [3]): 13300 nM; Kd (HLA-A*02:02; [3]): 6460 nM |
| FTILEYLYIM | 40.5 | 3200 | 355 |  |
| FVATFRDMLL | 4.36 | 17.6 | 0.697 |  |
| GIKGLDERFV | 940 | 844 | 6190 |  |
| GLYIPGTSV | 1740 | 16.6 | 111 |  |
| GVSGLYIPGT | 31.7 | 2150 | 140 |  |
| ILNAHEDGV |  |  |  | Kd (HLA-A*02:03; [4]): 93.2 nM |

| Sequence | Kd (HLA-A*02:06; [1]) [nM] | Kd (HLA-A*02:03; [1]) [nM] | Kd (HLA-A*02:02; [1]) [nM] | other results |
| --- | --- | --- | --- | --- |
| IMEIVSHLRA | 4410 | 396 | 955 |  |
| IMRNFLRSIA | 544 | 122 | 59.9 |  |
| KIDILQMREI | 875 | 414 | 1280 |  |
| KINNNRIVAM | 3190 | 1300 | 9120 |  |
| KIQLFSDFTI | ≥ 69800 | ≥ 70400 | ≥ 70000 |  |
| KMFESTYRGA |  |  |  | Kd (HLA-A*02:03; source organism: Dengue virus 4 Dominica/814669/1981): 10.4 nM |
| KVTVPTNDHI | 3600 | 1240 | 4710 |  |
| LAYYNSCMLT | 86.2 | 15.9 | 12.1 |  |
| LIAGIILLIL |  |  |  | Kd (HLA-A*02:06; [5]): 345 nM; Kd (HLA-A*02:03; [5]): 680 nM; Kd (HLA-A*02:02; [5]): 141 nM |
| LIASLVMLLV |  |  |  | Kd (HLA-A*02:03; [4]): 64.7 nM |
| LMELPVKTDI | 12900 | 986 | 1510 |  |
| LNASYITPYV |  |  |  | Kd (HLA-A*02:06; [6]): 37.7 nM; Kd (HLA-A*02:03; [6]): 1070 nM; Kd (HLA-A*02:02; [6]): 33.2 nM |
| LTNAISSRV | 145 | 18.6 | 146 |  |
| MLIIFWFSL |  |  |  | Kd (HLA-A*02:06; [2]): 490 nM; Kd (HLA-A*02:03; [2]): 13000 nM; Kd (HLA-A*02:02; [2]): 132 nM |
| MNNVVQALT |  |  |  | Kd (HLA-A*02:06; [7]): ≥ 77000 nM; Kd (HLA-A*02:03; [7]): ≥ 21500 nM; Kd (HLA-A*02:02; [7]): 2280 nM |
| MVMCGGSLYV |  |  |  | Kd (HLA-A*02:06; [2]): 13.2 nM; Kd (HLA-A*02:03; [2]): 10.3 nM; Kd (HLA-A*02:02; [2]): 15.1 nM |
| NILGGVLHT | 9960 | ≥ 20600 | ≥ 77800 |  |
| NITHTNITTL | 8170 | 5020 | 10400 |  |
| NIYRLFTRCA | 22.9 | 138 | 9890 |  |
| NLETYTRPEI | 636 | 1500 | 539 |  |
| NLLEQLIENI | 396 | 1440 | 836 |  |
| NQAAVLMGL |  |  |  | Kd (HLA-A*02:06; [4]): 6.98 nM |
| NTISGNIYSA | 393 | 314 | 269 |  |
| NVDVGCLLT | ≥ 64500 | 14000 | 9850 |  |
| NVIGLIVIL | 15.1 | 2400 | 84.9 |  |
| NVQSLIKFI | 10500 | 6020 | 12900 |  |
| NVSRVVECLT | ≥ 10000 | 14300 | 4660 |  |

— the Immune Epitope Database (IEDB)
